Numbered stars: 1 amine (or outer) side, 2 acyl side, 3 side chain; on linkers, the order of the positions; unused ones are H or OH. Square brackets hold non-standard residues; d marks the D form. Primed or numbered codes have the meaning given here. Side chains are listed from the residue outwards. Ends that are not written are not given here. * marks the point of attachment. X2 = 4‑amino‑1‑((3-fluoro-4-methylbenzyl)glycyl)piperidine‑4‑carboxylic acid, Cc1ccc(CN(CC(=O)N2CCC(N[*:1])(C(=O)[*:2])CC2)[*:3])cc1F; DOTA = O=C(O)CN1CCN(CC(=O)O)CCN(CC(=O)*)CCN(CC(=O)O)CC1; Piperidine‑2‑carboxylic_acid(MeGly) = not defined here; Ala(9-anthryl) = N[C@@H](Cc1c2ccccc2cc2ccccc12)C(=O)O; Bpa = N[C@@H](Cc1ccc(C(=O)c2ccccc2)cc1)C(=O)O; Api(1-amidino) = N=C(N)N1CCC(N)(C(=O)O)CC1; Bip = N[C@@H](Cc1ccc(-c2ccccc2)cc1)C(=O)O; γGlu = O=C(O)[C@H](CCC(=O)[*:2])N[*:1]; d2Nal = N[C@H](Cc1ccc2ccccc2c1)C(=O)O; εLys = N[C@@H](CCCCN[*:1])C(=O)[*:2]; Adipoyl = O=C(CCCCC(=O)[*:2])[*:1]; Palmitoyl = CCCCCCCCCCCCCCCC(=O)*; 4Pal = N[C@@H](Cc1ccncc1)C(=O)O; d4Pal = N[C@H](Cc1ccncc1)C(=O)O; 4Amb = NCc1ccc(C(=O)O)cc1; PEG4′ = not defined here; dCsA = not defined here; Ahx = NCCCCCC(=O)O; azaGly = NNC(=O)O
Molecular target: human kisspeptin receptor (KISS1R) (human) (UniProt Q969F8)
Test: radioligand competition, hKISS1R membranes; legend: A is <10 nM

human kisspeptin receptor (KISS1R) (human), sequence (Q969F8 whole entry): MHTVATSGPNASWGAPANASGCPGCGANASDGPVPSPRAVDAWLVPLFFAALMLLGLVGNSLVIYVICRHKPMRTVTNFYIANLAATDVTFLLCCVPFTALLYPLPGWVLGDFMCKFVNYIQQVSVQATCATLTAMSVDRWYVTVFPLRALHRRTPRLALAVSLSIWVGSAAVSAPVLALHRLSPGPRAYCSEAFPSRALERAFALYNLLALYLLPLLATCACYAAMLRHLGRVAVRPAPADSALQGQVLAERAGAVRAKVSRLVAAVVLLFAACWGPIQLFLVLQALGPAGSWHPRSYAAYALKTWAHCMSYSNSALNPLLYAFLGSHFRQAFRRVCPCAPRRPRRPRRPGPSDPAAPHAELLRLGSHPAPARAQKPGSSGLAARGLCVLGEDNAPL

| Binder | Ki |
| --- | --- |
| {DOTA}-[Ahx][dY][Bpa]NTF[azaGly]L[Api(1-amidino)]W-NH2 (SMILES CC(C)C[C@H](NC(=O)NNC(=O)[C@H](Cc1ccccc1)NC(=O)[C@@H](NC(=O)[C@H](CC(N)=O)NC(=O)[C@H](Cc1ccc(C(=O)c2ccccc2)cc1)NC(=O)[C@@H](Cc1ccc(O)cc1)NC(=O)CCCCCNC(=O)CN1CCN(CC(=O)O)CCN(CC(=O)O)CCN(CC(=O)O)CC1)[C@@H](C)O)C(=O)NC1(C(=O)N[C@@H](Cc2c[nH]c3ccccc23)C(N)=O)CCN(C(=N)N)CC1) [Compound 183] | < 10 nM |
| {DOTA}-[Ahx][dY][d2Nal]NTF[azaGly]L[Api(1-amidino)]Y-NH2 (SMILES CC(C)C[C@H](NC(=O)NNC(=O)[C@H](Cc1ccccc1)NC(=O)[C@@H](NC(=O)[C@H](CC(N)=O)NC(=O)[C@@H](Cc1ccc2ccccc2c1)NC(=O)[C@@H](Cc1ccc(O)cc1)NC(=O)CCCCCNC(=O)CN1CCN(CC(=O)O)CCN(CC(=O)O)CCN(CC(=O)O)CC1)[C@@H](C)O)C(=O)NC1(C(=O)N[C@@H](Cc2ccc(O)cc2)C(N)=O)CCN(C(=N)N)CC1) [Compound 185] | < 10 nM |
| {DOTA-Ahx}-[dY][3‑(9-anthryl)alanine]NTF[azaGly]L[Api(1-amidino)][4Pal]-NH2 [Compound 222] | < 10 nM |
| {DOTA-Ahx}-[dY][d2Nal]NTF[azaGly]L[Api(1-amidino)]W-NH2 [Compound 269] | < 10 nM |
| {DOTA-Ahx}-[dK](4‑(p-tolyl)butanoyl)[dY][d2Nal]NTF[azaGly]L[Api(1-amidino)]F-NH2 [Compound 309] | < 10 nM |
| {DOTA}-[Ahx][dY][Ala(9-anthryl)]NTF[azaGly]L[Api(1-amidino)]W-NH2 (SMILES CC(C)C[C@H](NC(=O)NNC(=O)[C@H](Cc1ccccc1)NC(=O)[C@@H](NC(=O)[C@H](CC(N)=O)NC(=O)[C@H](Cc1c2ccccc2cc2ccccc12)NC(=O)[C@@H](Cc1ccc(O)cc1)NC(=O)CCCCCNC(=O)CN1CCN(CC(=O)O)CCN(CC(=O)O)CCN(CC(=O)O)CC1)[C@@H](C)O)C(=O)NC1(C(=O)N[C@@H](Cc2c[nH]c3ccccc23)C(N)=O)CCN(C(=N)N)CC1) [Compound 184] | < 10 nM |
| {DOTA-Ahx}-[dY][d2Nal]NTF[azaGly]L[Api(1-amidino)]F-NH2 (SMILES CC(C)C[C@H](NC(=O)NNC(=O)[C@H](Cc1ccccc1)NC(=O)[C@@H](NC(=O)[C@H](CC(N)=O)NC(=O)[C@@H](Cc1ccc2ccccc2c1)NC(=O)[C@@H](Cc1ccc(O)cc1)NC(=O)CCCCCNC(=O)CN1CCN(CC(=O)O)CCN(CC(=O)O)CCN(CC(=O)O)CC1)[C@@H](C)O)C(=O)NC1(C(=O)N[C@@H](Cc2ccccc2)C(N)=O)CCN(C(=N)N)CC1) [Compound 300] | < 10 nM |
| {DOTA-Ahx}-[dY][d4Pal]NTF[azaGly]L[Apc(OMe)][4Pal]-NH2 [Compound 299] | < 10 nM |
| {DOTA}-[dY][3‑(9-anthryl)alanine]NTF[azaGly]L[Api(1-amidino)][4Pal]-NH2 [Compound 221] | < 10 nM |
| {DOTA}-[Ahx][dY][d2Nal]NTF[azaGly]L[Piperidine‑2‑carboxylic_acid(MeGly)]W-NH2 (not fully specified; reading uncertain) [Compound 201] | < 10 nM |
| {DOTA-Ahx}-[d2Nal]NTF[azaGly]L[Api(1-amidino)]F-NH2 (SMILES CC(C)C[C@H](NC(=O)NNC(=O)[C@H](Cc1ccccc1)NC(=O)[C@@H](NC(=O)[C@H](CC(N)=O)NC(=O)[C@@H](Cc1ccc2ccccc2c1)NC(=O)CCCCCNC(=O)CN1CCN(CC(=O)O)CCN(CC(=O)O)CCN(CC(=O)O)CC1)[C@@H](C)O)C(=O)NC1(C(=O)N[C@@H](Cc2ccccc2)C(N)=O)CCN(C(=N)N)CC1) [Compound 301] | < 10 nM |
| {DOTA}-[Ahx][dY][Bip]NTF[azaGly]L[Api(1-amidino)]W-NH2 (SMILES CC(C)C[C@H](NC(=O)NNC(=O)[C@H](Cc1ccccc1)NC(=O)[C@@H](NC(=O)[C@H](CC(N)=O)NC(=O)[C@H](Cc1ccc(-c2ccccc2)cc1)NC(=O)[C@@H](Cc1ccc(O)cc1)NC(=O)CCCCCNC(=O)CN1CCN(CC(=O)O)CCN(CC(=O)O)CCN(CC(=O)O)CC1)[C@@H](C)O)C(=O)NC1(C(=O)N[C@@H](Cc2c[nH]c3ccccc23)C(N)=O)CCN(C(=N)N)CC1) [Compound 198] | < 10 nM |

Molecular target: human kisspeptin receptor (KISS1R) (human), Q969F8
Test: as above

human kisspeptin receptor (KISS1R) (human), Q969F8, sequence (Q969F8 whole entry): as above

| Binder | Ki |
| --- | --- |
| {DOTA-4Amb-Met-Val-εLys-Adipoyl}-F[azaGly]L[X2]W-NH2 [Compound 132] | < 10 nM |
| {DOTA-Ahx}-[dY][dH][dW]NTF[azaGly]L[X2][4Pal]-NH2 (SMILES Cc1ccc(CNCC(=O)N2CCC(NC(=O)[C@H](CC(C)C)NC(=O)NNC(=O)[C@H](Cc3ccccc3)NC(=O)[C@@H](NC(=O)[C@H](CC(N)=O)NC(=O)[C@@H](Cc3c[nH]c4ccccc34)NC(=O)[C@@H](Cc3c[nH]cn3)NC(=O)[C@@H](Cc3ccc(O)cc3)NC(=O)CCCCCNC(=O)CN3CCN(CC(=O)O)CCN(CC(=O)O)CCN(CC(=O)O)CC3)[C@@H](C)O)(C(=O)N[C@@H](Cc3ccncc3)C(N)=O)CC2)cc1F) [Compound 107] | < 10 nM |
| {DOTA-dCsA-Ahx}-[dY][dW]NTF[azaGly]L[X2]W-NH2 (not fully specified; reading uncertain) [Compound 115] | < 10 nM |
| {DOTA-Ahx}-[dY][dW]NTF[azaGly]L[X2][4Pal]-NH2 (SMILES Cc1ccc(CNCC(=O)N2CCC(NC(=O)[C@H](CC(C)C)NC(=O)NNC(=O)[C@H](Cc3ccccc3)NC(=O)[C@@H](NC(=O)[C@H](CC(N)=O)NC(=O)[C@@H](Cc3c[nH]c4ccccc34)NC(=O)[C@@H](Cc3ccc(O)cc3)NC(=O)CCCCCNC(=O)CN3CCN(CC(=O)O)CCN(CC(=O)O)CCN(CC(=O)O)CC3)[C@@H](C)O)(C(=O)N[C@@H](Cc3ccncc3)C(N)=O)CC2)cc1F) [Compound 105] | < 10 nM |
| {DOTA-Ahx}-[dY]N[dW]NTF[azaGly]L[X2][4Pal]-NH2 (SMILES Cc1ccc(CNCC(=O)N2CCC(NC(=O)[C@H](CC(C)C)NC(=O)NNC(=O)[C@H](Cc3ccccc3)NC(=O)[C@@H](NC(=O)[C@H](CC(N)=O)NC(=O)[C@@H](Cc3c[nH]c4ccccc34)NC(=O)[C@H](CC(N)=O)NC(=O)[C@@H](Cc3ccc(O)cc3)NC(=O)CCCCCNC(=O)CN3CCN(CC(=O)O)CCN(CC(=O)O)CCN(CC(=O)O)CC3)[C@@H](C)O)(C(=O)N[C@@H](Cc3ccncc3)C(N)=O)CC2)cc1F) [Compound 106] | < 10 nM |
| [dY][dW]NTF[azaGly]L[X2]W-NH2 (not fully specified (N-terminus); also: N-terminal Lys linked through its epsilon amine to adipoyl, which acylates D-Tyr1) [Compound 117] | < 10 nM |
| {DOTA-Ahx}-[dY][azaGly]NTF[azaGly]L[X2]W-NH2 (SMILES Cc1ccc(CNCC(=O)N2CCC(NC(=O)[C@H](CC(C)C)NC(=O)NNC(=O)[C@H](Cc3ccccc3)NC(=O)[C@@H](NC(=O)[C@H](CC(N)=O)NC(=O)NNC(=O)[C@@H](Cc3ccc(O)cc3)NC(=O)CCCCCNC(=O)CN3CCN(CC(=O)O)CCN(CC(=O)O)CCN(CC(=O)O)CC3)[C@@H](C)O)(C(=O)N[C@@H](Cc3c[nH]c4ccccc34)C(N)=O)CC2)cc1F) [Compound 108] | < 10 nM |
| Palmitoyl-[γGlu]K([PEG4′-DOTA])[dY][dW]NTF[azaGly]L[X2]W-NH2 [Compound 119] | < 10 nM |
| {DOTA-4Amb}-F[azaGly]L[X2]W-NH2 (SMILES Cc1ccc(CNCC(=O)N2CCC(NC(=O)[C@H](CC(C)C)NC(=O)NNC(=O)[C@H](Cc3ccccc3)NC(=O)c3ccc(CNC(=O)CN4CCN(CC(=O)O)CCN(CC(=O)O)CCN(CC(=O)O)CC4)cc3)(C(=O)N[C@@H](Cc3c[nH]c4ccccc34)C(N)=O)CC2)cc1F) [Compound 109] | < 10 nM |
| {DOTA-Met-Val-εLys-Adipoyl}-[dY][dW]NTF[azaGly]L[X2]W-NH2 [Compound 133] | < 10 nM |
| {DOTA-Ahx}-[dY][dW]NTF[azaGly]L[4‑amino‑1‑((4-methoxybenzyl)glycyl)piperidine‑4‑carboxylic acid]F-NH2 [Compound 140] | < 10 nM |
| {DOTA-Ahx}-[dY][dW]NAF[azaGly]L[X2]L-NH2 (SMILES Cc1ccc(CNCC(=O)N2CCC(NC(=O)[C@H](CC(C)C)NC(=O)NNC(=O)[C@H](Cc3ccccc3)NC(=O)[C@H](C)NC(=O)[C@H](CC(N)=O)NC(=O)[C@@H](Cc3c[nH]c4ccccc34)NC(=O)[C@@H](Cc3ccc(O)cc3)NC(=O)CCCCCNC(=O)CN3CCN(CC(=O)O)CCN(CC(=O)O)CCN(CC(=O)O)CC3)(C(=O)N[C@@H](CC(C)C)C(N)=O)CC2)cc1F) [Compound 113] | < 10 nM |

From patent US20250312499A1, “KISSPEPTIN RECEPTOR (KISS1R) TARGETED THERAPEUTICS AND USES THEREOF” (priority 2024, published 2025)
